The results in this text go back to paper PMC4898720, “NrdR Transcription Regulation: Global Proteome Analysis and Its Role in Escherichia coli Viability and Virulence” (PLoS ONE, 2016).

Broadly, the stoichiometry N is the number of molecules, sites or subunits per partner or assembly.

This series concerns the molecule itself. The series can be described thus: SDS-PAGE of gel filtration fractions with peptide mass fingerprinting; SDS-PAGE of Superdex 200 fractions of un-refolded and refolded NrdR; ~40 kDa band identified by peptide mass fingerprinting; samples boiled 10 min with 5 mM DTT. (In general: Size exclusion chromatography separates by hydrodynamic size, large species first.)

B1: E. coli NrdR (natural protein, UniProt P0A8D0 1-149, looked up)
chain: MHCPFCFAVDTKVIDSRLVGEGSSVRRRRQCLVCNERFTTFEVAELVMPRVVKSNDVREPFNEEKLRSGMLRALEKRPVSSDDVEMAINHIKSQLRATGEREVPSKMIGNLVMEQLKKLDKVAYIRFASVYRSFEDIKEFGEEIARLED
notes: Transcriptional repressor NrdR of E. coli BW25113, full length ORF cloned between NdeI and XhoI of pET21b; also called EcNrdR; as prepared NrdR; source: E. coli BL21 (DE3), purified (HisTrap Ni column, Superdex 200 gel filtration)
Consider B1, for which the “stoichiometry N” value stood at 2.
